Assay results: publication PMC2800238

Biological target: nsp12 (RdRp) (SARS-CoV Frankfurt-1, UniProt P0C6X7 4370-5301)
Assay: EMSA

Row | Binder | Kd [nM]
1 | SAV557R/SAV481R primer-template duplex (dsRNA) RNA 1: GCUAUGUGAGAUUAAGUUAU RNA 2: UUUUUUUUUUAUAACUUAAUCUCACAUAGC | 130
2 | GCUAUGUGAGAUUAAGUUAU (ssRNA) [SAV557R ssRNA] | 100
